Assay results reported in publication PMC2742894, “Crystal Structure of the N-Acetylmannosamine Kinase Domain of GNE” (PLoS ONE, 2009).

Molecular target: the molecule itself
Experiment: SEC; Superdex-200 10/300; GNE kinase domain at 6 mg per mL in 20 mM HEPES pH 7.5, 500 mM NaCl, 5 mM MgCl2, 1 mM TCEP; apparent molecular weight from a calibration curve

B1: N-acetylmannosamine kinase domain of UDP-GlcNAc 2-epimerase/N-acetylmannosamine kinase (GNE), residues 406-720 (domain or fragment, human, UniProt Q9Y223 406-720, looked up)
chain: TLSALAVDLGGTNLRVAIVSMKGEIVKKYTQFNPKTYEERINLILQMCVEAAAEAVKLNCRILGVGISTGGRVNPREGIVLHSTKLIQEWNSVDLRTPLSDTLHLPVWVDNDGNCAALAERKFGQGKGLENFVTLITGTGIGGGIIHQHELIHGSSFCAAELGHLVVSLDGPDCSCGSHGCIEAYASGMALQREAKKLHDEDLLLVEGMSVPKDEAVGALHLIQAAKLGNAKAQSILRTAGTALGLGVVNILHTMNPSLVILSGVLASHYIHIVKDVIRQQALSSVQDVDVVVSDLVDPALLGAASMVLDYTTRR
notes: UDP-GlcNAc 2-epimerase/N-acetylmannosamine kinase (GNE), human, kinase domain, residues 406-720; cDNA codon optimized for E. coli and synthesized; Cloned into pET28-MHL (gi:134105571); For crystallization 1:100 chymotrypsin (w/w) and 5 mM ADP were added to the protein stock, so the crystallized chain may be trimmed; residues 475-498 are not seen in the electron density; A …
  stoichiometry N: 2
